Laboratory results from article doi:10.64898/2025.12.16.694593 (bioRxiv, 2025).

Key:
[1] = biological target: His-SNAP-Mtb Ku (Mycobacterium tuberculosis) (UniProt P9WKD9); assay: SEC
Mtb LigD WT = Mtb LigD WT (Mycobacterium tuberculosis, UniProt P9WNV3 1-759); assay: […]
Sequence of Mtb LigD WT (P9WNV3 whole entry): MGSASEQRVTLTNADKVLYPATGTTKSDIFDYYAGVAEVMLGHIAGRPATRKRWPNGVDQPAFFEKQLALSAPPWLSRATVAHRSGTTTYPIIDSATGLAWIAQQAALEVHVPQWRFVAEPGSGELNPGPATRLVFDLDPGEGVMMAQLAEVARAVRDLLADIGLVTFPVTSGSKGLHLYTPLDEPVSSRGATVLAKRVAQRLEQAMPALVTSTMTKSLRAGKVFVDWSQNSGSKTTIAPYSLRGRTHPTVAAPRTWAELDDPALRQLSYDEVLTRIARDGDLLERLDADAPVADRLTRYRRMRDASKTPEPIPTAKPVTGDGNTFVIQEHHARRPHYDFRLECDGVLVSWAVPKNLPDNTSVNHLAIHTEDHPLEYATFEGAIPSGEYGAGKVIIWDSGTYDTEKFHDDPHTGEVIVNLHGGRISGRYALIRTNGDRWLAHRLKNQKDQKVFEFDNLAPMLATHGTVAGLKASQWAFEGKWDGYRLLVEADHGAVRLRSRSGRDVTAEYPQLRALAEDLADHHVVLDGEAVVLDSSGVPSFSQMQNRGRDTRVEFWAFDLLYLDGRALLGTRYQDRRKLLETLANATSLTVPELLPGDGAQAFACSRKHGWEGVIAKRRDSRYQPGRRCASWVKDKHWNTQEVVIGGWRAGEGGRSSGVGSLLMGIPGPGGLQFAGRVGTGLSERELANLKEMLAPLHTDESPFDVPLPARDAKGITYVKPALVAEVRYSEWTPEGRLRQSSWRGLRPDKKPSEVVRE

Molecule	stoichiometry N [1]	binding result (Mtb LigD WT)
His-SNAP-Mtb Ku (from UniProt P9WKD9 1-273) (natural protein)	2	
His-SNAP-Mtb Ku (natural protein) MRAIWTGSIAFGLVNVPVKVYSATADHDIRFHQVHAKDNGRIRYKRVCEACGEVVDYRDLARAYESGDGQMVAITDDDIASLPEERSREIEVLEFVPAADVDPMMFDRSYFLEPDSKSSKSYVLLAKTLAETDRMAIVHFTLRNKTRLAALRVKDFGKREVMMVHTLLWPDEIRDPDFPVLDQKVEIKPAELKMAGQVVDSMADDFNPDRYHDTYQEQLQELIDTKLEGGQAFTAEDQPRLLDEPEDVSDLLAKLEASVKARSKANSNVPTPP		binds
